These results are taken from article PMC12302606, “The SlDOF9‐SlSWEET17 Module: a Switch for Controlling Sugar Distribution Between Nematode Induced Galls and Roots in Tomato”.

For the series, the target named is SlDOF9-His (Solanum lycopersicum, UniProt A0A3Q7FC45 1-258). The series is described as follows: EMSA (supershift); anti-His antibody; Biotin-labeled and unlabeled probes with purified protein and anti-His antibody, room temperature, 30 min; buffer from kit, salt and pH not stated. To be noted: protein: recombinant, tags: C-terminal His, blunt. (Mobility shift assays separate free from complexed probe on a gel.)
Sequence of SlDOF9-His (A0A3Q7FC45 entry or part of it): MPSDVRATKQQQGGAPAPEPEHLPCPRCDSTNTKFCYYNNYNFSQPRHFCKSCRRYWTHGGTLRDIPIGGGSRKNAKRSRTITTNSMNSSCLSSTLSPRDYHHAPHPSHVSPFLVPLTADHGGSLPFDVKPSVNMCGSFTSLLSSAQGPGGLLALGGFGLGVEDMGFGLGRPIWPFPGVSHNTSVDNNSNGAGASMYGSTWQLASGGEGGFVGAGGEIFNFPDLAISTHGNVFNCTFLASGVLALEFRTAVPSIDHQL

B1: TS2 (dsDNA)
DNA 1: AGCCAGAAAAGAAAATACAATAATTCTCATT
DNA 2: AATGAGAATTATTGTATTTTCTTTTCTGGCT
As to B1, the binding result (label: biotin (labeled probe)) is reported as “binds”.

B2: TS1 (dsDNA)
DNA 1: AAAAAGTGATAAGAAAAAACATCCAAGCCCT
DNA 2: AGGGCTTGGATGTTTTTTCTTATCACTTTTT
For B2, the binding result (label: biotin (labeled probe)) is given as “binds”.

B3: TS1m (dsDNA)
DNA 1: AACATGTGATAAGAAAAAACATCCAAGCCCT
DNA 2: AGGGCTTGGATGTTTTTTCTTATCACATGTT
B3: the binding result is reported as “no binding”.
